Test system: MS2 coat protein
Test: apparent KD of MS2 coat protein; designed switch direction (-1 OFF switch, 1 ON switch): -1; higher = weaker reporter binding
Method in brief: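 For each design, the apparent KD is the median over clusters of curves fitted to normalised cluster fluorescence. Clusters held RNA switches with common flanks, transcribed on Illumina chips by stalled E. coli RNA polymerase. These were titrated with SNAP-549-labelled MS2 coat protein, doubling from 0.7 or 1.5 nM to 3 µM, without input, with 200 uM small-molecule ligand, or with an oligonucleotide input.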

[1] = Eterna round: R95, input ligand: microRNA oligo, concentration not stated
[2] = Eterna round: R95, input ligand: FMN 200 uM
[3] = Eterna round: R95, input ligand: none
[4] = input ligand: microRNA oligo, concentration not stated

| Sequence | apparent KD of MS2 coat protein (input ligand: FMN 200 uM) [nM] | apparent KD of MS2 coat protein (input ligand: none) [nM] | apparent KD of MS2 coat protein [1] [nM] | apparent KD of MS2 coat protein [2] [nM] | apparent KD of MS2 coat protein [3] [nM] | apparent KD of MS2 coat protein [4] [nM] |
| --- | --- | --- | --- | --- | --- | --- |
| AUAAUGUCAGGAUAUCAGUCGACUAGCGAUAGCUAGUCGACUGAGAAGGGACAUGAGGAUCACCCAUGUGUUUC [E4/14-A4] (Eterna round: R97, puzzle: Exclusion 4) | 2.73 | 170 | – | – | – | – |
| AUAAUGUCAGGAUAUCAGUCGUACAGCUGCGGCUGUACGACUGAGAAGGGACAUGAGGAUCACCCAUGUGGUCA [E4/6-A3] (Eterna round: R97, puzzle: Exclusion 4) | 20.2 | 236 | – | – | – | – |
| AUAAUGUCAGGAUAUCGAACUUACUACUUCGGUAGUAAGUUCGAGAAGGGACAUGAGGAUCACCCAUGUGAUCA [E4/1-A4] (Eterna round: R97, puzzle: Exclusion 4) | 41.8 | 109 | – | – | – | – |
| AUAAUGUCAGGAUAUCGAGACUACUGCCUCGGCAGUAGUCUCGAGAAGGGACAUGAGGAUCACCCAUGUGAUCA [E4/1-A2] (Eterna round: R97, puzzle: Exclusion 4) | 831 | 45.2 | – | – | – | – |
| AUACCACGAGGAUAUCGUCUAUAAUACAUGAGGAUCACCCAUGUUAUAUCUGUAAUGUUUCGAGAAGGCGUUUGUU [JR_E5_Sub085] (puzzle: Exclusion 5) | – | – | 21.3 | – | – | – |
| AUACCACGAGGAUAUCGUCUAUUUCACAUGAGGAUCACCCAUGUUAUCCUUGUUUCGUUUCGAGAAGGCGUGUUUU [JR_E5_Sub076] (puzzle: Exclusion 5) | – | – | 43.8 | – | – | – |
| AUACUUGCGAAGGAUAUGUAUCAAAGGAACGAAACAGAAGGUUGAACAUGAGGAUCACCCAUGUGUUCCUCGGA [Eternabot (Original) Solution 40] (Eterna round: R97, puzzle: Exclusion 6) | 272 | 235 | – | – | – | – |
| AUAGUAGAAGUGAGGAUAUCGUAGAUUUUUUGAAACGAGAAGGCACAUGAGGAUCACCCAUGUAAGAUGGAGGU [JR_BMOE4_Sub052] (puzzle: Brourd's mod of Exclusion 4) | – | – | 219 | 236 | 319 | – |
| AUAUAGAUAGUCAGGAUAUUCUAGUGAUAACAGUAGGAGAAGGGACAUGAGGAUCACCCAUGUAGAUAGUGCAC [Brourd's EX4 #15] (Eterna round: R97, puzzle: Brourd's mod of Exclusion 4) | 42.9 | 27 | – | – | – | – |
| AUAUUAAUAUAGGAUAUCGAAUUUAUAAAUUAUCGAGAAGGAUAAACAUGAGGAUCACCCAUGUGGUAUCAUGG [Mat - Exclusion 6 - JL Mod - D42] (puzzle: Exclusion 6) | – | – | 222 | 239 | 346 | – |
| AUAUUGUGAGGAUAUGAACUUAGUAACGAAAGAUACUAAGUUCAGAAGGCACAUGAGGAUCACCCAUGUUUCUC [Long static hairpin v11] (Eterna round: R97, puzzle: Exclusion 4) | 596 | 68.1 | – | – | – | – |
| AUAUUGUGAGGAUAUGAACUUAGUAUCGAAAGAAACUAAGUUCAGAAGGCACAUGAGGAUCACCCAUGUUUCUC [Long static hairpin v10] (Eterna round: R97, puzzle: Exclusion 4) | 566 | 63.2 | – | – | – | – |
| AUAUUUAAUGAGGAUAUCGUUGUAGGUAUAUAGCGAGAAGGCAUUACAUGAGGAUCACCCAUGUAGUGUGGGUU [JR_Ex6_Sub021] (Eterna round: R97, puzzle: Exclusion 6) | 78.7 | 23.7 | – | – | – | – |
| AUCAGCUCGUCAGGAUAUAUAUACAUGAGGAUCACCCAUGUAAGAUCAGGCUUCGGCCAAUGUAUAUAGAAGGGACGAGCUGAU [ENG2/11-B3] (Eterna round: R96, puzzle: Exclusion NG 2) | 1550 | 771 | – | – | – | 371 |
| AUCAGCUCGUCAGGAUAUAUUAACAUGAGGAUCACCCAUGUAAGAUCAGGCUUCGGCCAAUGUUAAUAGAAGGGACGAGCUGAU [ENG2/12-B2] (Eterna round: R96, puzzle: Exclusion NG 2) | 710 | 133 | – | – | – | 29 |
| AUCAGCUCGUGAGGAUAUACAUGAUAGAUCGAUUAAUUAAUUAAUUUAACAUGAGGAUCACCCAUGUAGAAGGCACGAGCUGAU [ENG2/1-A3] (Eterna round: R96, puzzle: Exclusion NG 2) | – | – | – | – | – | 30 |
| AUCAUAUAACAAGCUUUUUACAUGAGGAUCACCCAUGUGGUUUUUAGUCUUAUCCCGGGCCCGAUAUCGGGCCCGGG [-33.4, -54.7, A 22%] (Eterna round: R97, puzzle: Sensor, turn-off variant 1) | 22.8 | 24.2 | – | – | – | – |
| AUCAUGUCAGGAUAUGUGAUAUGGAUCUUCGGAUCAAGUUCACAGAAGGGACAUGAGGAUCACCCAUGUCGAAC [Ex4-3: 30] (puzzle: Exclusion 4) | – | – | 40.1 | – | – | – |

| Sequence | apparent KD of MS2 coat protein (input ligand: FMN 200 uM) [nM] | apparent KD of MS2 coat protein (input ligand: none) [nM] | apparent KD of MS2 coat protein [1] [nM] | apparent KD of MS2 coat protein [2] [nM] | apparent KD of MS2 coat protein [3] [nM] | apparent KD of MS2 coat protein [4] [nM] |
| --- | --- | --- | --- | --- | --- | --- |
| AUCAUGUUAGGAUAUUACGACGCAGCGGGUAGCCCGUAAAGUAAGAAGGAACAUGAGGAUCACCCAUGUUCAAA [EX4 B.22] (Eterna round: R97, puzzle: Exclusion 4) | 32.8 | 19.6 | – | – | – | – |
| AUCCAACAUGAGGAUCACCCAUGUCAGGAUAUACCCAUCUCCACCUAAUCGGUGGUGGGUAGAAGGGAUAUGUC [EX1 B.10] (Eterna round: R97, puzzle: Exclusion 1) | 22.6 | 18.9 | – | – | – | – |
| AUCCAGCGAGGAUAUACUUUGUUUUUUUCGUUUUGUCUCGAACAUGAGGAUCACCCAUGUAGAAGGUGCUUCAC [JR_Ex2_Sub005] (Eterna round: R97, puzzle: Exclusion 2) | 60.8 | 69.7 | – | – | – | – |
| AUCCGUAGGCGCACCUCACACAUGAGGAUCACCCAUGUGCCCUACAAUCGCAAGCUGUGCUCGUUGCUGGUCCCUAC [Eternabot (L1) Solution 16] (Eterna round: R97, puzzle: Sensor, turn-off variant 1) | 45.3 | 48.5 | – | – | – | – |
| AUCCUGUCAGGAUAUCUAGUUAAAUACAUGAGGAUCACCCAUGUCACUGGGCCGUCCUUAAGAGAAGGGACAGGCG [Edabe] (puzzle: Exclusion 5) | – | – | 34.5 | 169 | 39.7 | – |
| AUCCUUAACAAGGAUAUCGGGCGGGAAAUUGUUUGAGAAGGUGUAACAUGAGGAUCACCCAUGUAAAAUAUGAA [-14.9, -13.5 kcal, A 36%] (Eterna round: R97, puzzle: Exclusion 6) | 21.7 | 31.2 | – | – | – | – |
| AUGAGGUUAGGAUAUACAUGAGGAUCACCCAUGUUGAAAGGAUAGAUAAGAAAAGAUAGUAGAAGGAACAAAGA [JR_Exclu3_Sub052] (puzzle: Exclusion 3) | – | – | 34.9 | 34.4 | 39.2 | – |
| AUGCUCCGUGUAGGAUAUCGCCGUACUAUUCGGCGAGAAGGACAUGAGGAUCACCCAUGUAUGUUAUUAUCACGUGUGGCGCGC [Design 48] (Eterna round: R96, puzzle: Exclusion NG 1) | 57 | 18.9 | – | – | – | 14.5 |
| AUGCUCCGUGUAGGAUAUCGCCGUAUUAUUCGGCGAGAAGGACAUGAGGAUCACCCAUGUAUGUUAUUAUCACGUGUGGCGCGC [Design 47] (Eterna round: R96, puzzle: Exclusion NG 1) | 41.8 | 21.8 | – | – | – | 13.6 |
| AUGGGUACUUUCGGAGCGACAUGAGGAUCACCCAUGUAUAUUGAGGAUAUCCACUGCUAAGGACGGGAGAAGGCAGUGUACUGU [Ex NG3 #82] (Eterna round: R96, puzzle: Exclusion NG 3) | 73.3 | 54.2 | – | – | – | 42.9 |
| AUGGUACAUGAGGAUCACCCAUGUUAGGAUAUCGCGUGUUCUAAAACUAAGAGACACACGAGAAGGGACGACAU (puzzle: Exclusion 1) | – | – | 67.8 | 51.5 | 71.4 | – |
| AUGUCGGCAGGAUAUACAUGAGGAUCACCCAUGUAAAUUUUUCGUUUAACUUGAAUGUGUAGAAGGGCCAUGAA [Ex3 #68] (Eterna round: R97, puzzle: Exclusion 3) | 30.9 | 33 | – | – | – | – |
| AUUAAAACAUAGGAUAUCGAAUUUAUCAUUUAACGAGAAGGAUGAACAUGAGGAUCACCCAUGUGGUAUCAUGG [Mat - Exclusion 6 - JL Mod - D6] (puzzle: Exclusion 6) | – | – | 165 | – | – | – |
| AUUAUACAUGUAGGAUAUCUGCACGUGUAGUGCAGAGAAGGACAUGAGGAUCACCCAUGUAGAUCAAUAAUAAUUAAUUUAAUU [ENG1/6-B3] (Eterna round: R96, puzzle: Exclusion NG 1) | 184 | 104 | – | – | – | 96.8 |
| AUUAUAUAGCAAGGAUAUAGAAUAUUAUUUUAACAUGAGGAUCACCCAUGUAACCUUAUGUGUAGCUAGAAGGUGCAUUUAUUA [Title] (Eterna round: R96, puzzle: Exclusion NG 2) | – | – | – | – | – | 64.1 |
| AUUCCUCCUGUUAGGAUAUGCAUCGGGCUUCCGCAGCAGAAGGAACAUGAGGAUCACCCAUGUCAAAUAAAAUC (Eterna round: R97, puzzle: Brourd's mod of Exclusion 4) | 231 | 30.2 | – | – | – | – |
| AUUGAUAGCACAGGAUAUUGAGAUUUGAAUUGACAAGAAGGGUGUACAUGAGGAUCACCCAUGUAAUGGGAGAGUGGUUGAUUA [JR_ExcNG1_Sub002] (Eterna round: R96, puzzle: Exclusion NG 1) | 365 | 582 | – | – | – | 324 |
